# B1: #06 (ssRNA)
# RNA: GGGACGCUCACGUACGCUCAUACACUGCACGCUCCGCUUUGAACAUCAAUGGAGGCCCUGUCAGUGCCUGGACGUGCAGU
# B2: 2'F-CU-R4_9068 (ssRNA)
# RNA: GGGACGCUCACGUACGCUCAUGAUAUUUAAAUUUGGCCGCGUUUAAAACAUCCCCUACGAUCAGUGCCUGGACGUGCAGU
# modifications: 2'-F on all C and U
# B3: 2'F-U-R4_9068 (ssRNA)
# RNA: GGGACGCUCACGUACGCUCAUGAUAUUUAAAUUUGGCCGCGUUUAAAACAUCCCCUACGAUCAGUGCCUGGACGUGCAGU
# modifications: 2'-F on all U
# B4: 2'F-C-R4_9068 (ssRNA)
# RNA: GGGACGCUCACGUACGCUCAUGAUAUUUAAAUUUGGCCGCGUUUAAAACAUCCCCUACGAUCAGUGCCUGGACGUGCAGU
# modifications: 2'-F on all C
# B5: #80 (ssRNA)
# RNA: GGGACGCUCACGUACGCUCACAUCUGAAUUUAAGCCACGUAGAACCAGGCCCUCCACGCGUCAGUGCCUGGACGUGCAGU
# B6: #08 (ssRNA)
# RNA: GGGACGCUCACGUACGCUCAAGUCCCUUGACACGUCCGUUUUCUAACUGGAAUAGAGGCCUCAGUGCCUGGACGUGCAGU
# B7: R8c6_1-15 (ssRNA)
# RNA: GGGCAGAGUACAGUAAGACACGUAGCACCAGUCUGACGUUUGUCGUCAGUGCCUGGACGUGCAGU
# B8: #36 (ssRNA)
# RNA: GGGACGCUCACGUACGCUCACCUAGCACGUCCGUUUCUGGAUCUGUCAGUUAGAGGCCUAUCAGUGCCUGGACGUGCAGU
# B9: R8c6_1-21 (ssRNA)
# RNA: GGGACAGUAAGACACGUAGCACCAGUCUGACGUUUGUCGUCAGUGCCUGGACGUGCAGU
# B10: R8c6_1-20 (ssRNA)
# RNA: GGGUACAGUAAGACACGUAGCACCAGUCUGACGUUUGUCGUCAGUGCCUGGACGUGCAGU
# B11: R8c6_1-18 (ssRNA)
# RNA: GGGAGUACAGUAAGACACGUAGCACCAGUCUGACGUUUGUCGUCAGUGCCUGGACGUGCAGU
# B12: #47 (ssRNA)
# RNA: GGGACGCUCACGUACGCUCAAAAAACUACUGCCGAACCGUAAGACACGUAGAACCAGGCAUCAGUGCCUGGACGUGCAGU
# B13: #10 (ssRNA)
# RNA: GGGACGCUCACGUACGCUCAUAGUCAAGGUGAAAACCCCCAUAGAGACUUCAGUGCCUGGACGUGCAGU
# B14: #34 (ssRNA)
# RNA: GGGACGCUCACGUACGCUCAAUUCACCUCAGCAUGUCCGCUUGUGACGAUGGAGGCACCUUCAGUGCCUGGACGUGCAGU
# Columns and labels:
# [1] = biological target: T1, His-tagged HMGB1 (UniProt P09429 P09429:1-215); experiment: SPR; physiological 150 mM NaCl; conditions: tags: N-terminal His-tag
# T1 sequence (P09429 whole entry, one chain of several): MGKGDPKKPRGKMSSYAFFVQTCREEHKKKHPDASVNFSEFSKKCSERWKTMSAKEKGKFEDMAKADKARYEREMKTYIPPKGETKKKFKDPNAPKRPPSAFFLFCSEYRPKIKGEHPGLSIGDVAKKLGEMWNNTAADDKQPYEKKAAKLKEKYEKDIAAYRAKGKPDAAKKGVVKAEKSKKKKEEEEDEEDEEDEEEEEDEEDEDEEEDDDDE
# Experimental: (§1) First, a sensor chip (trade name: Sensor Chip SA, manufactured by GE Heathcare) specially made for a BIACORE was set on the aforementioned BLACORE (registered trademark) X. Biotinylate deoxythymidine (5 μmol/L) was injected into the flow cell 2 of the aforementioned sensor chip using a running buffer and subjected to binding until the signal intensity (RU: resonance unit) reached about 1000 RU. For the aforementioned biotinylated deoxythymidine, 20-base-long deoxythymidine in which the 5′ end was biotinylated was used. Then, 10 μg/mL of an RNA aptamer was injected at a flow rate of 20 μL/min for 1 min into the aforementioned flow cells 1 and 2 of the aforementioned chip using a running buffer and subjected to binding until the signal intensity reached about 1000 RU. Next, 675 nmol/L of the aforementioned His-tag-added HMGB1 was injected at a flow rate of 20 μL/min for 30 sec using the aforementioned running buffer, and under the same conditions the aforementioned running buffer was allowed to flow continuously for washing. Simultaneously with the injection of the aforementioned His-tag-added HMGB1 and washing with the aforementioned running buffer, signal intensity was measured. The aforementioned running buffer was composed of 20 mmol/L of HEPES, 500 mmol/L of NaCl, 0.1 mmol/L of MgCl₂, and 0.1% Triton X-100 (registered trademark), with the pH thereof being 7.2. As a blocking agent for suppressing nonspecific binding, tRNA was used in a concentration of 1 mg/mL. In a comparative example, signal intensity was measured in the same manner except that the aforementioned comparative example RNA was used in place of the aforementioned example RNA aptamers.
# The ability of each of the aforementioned RNA aptamers to bind to HMGB1 under physiological conditions was examined. An analysis of binding ability was carried out in the same manner as in (2) above except that the 500 mmol/L NaCl concentration of the aforementioned running buffer was changed so as to conform to the physiology condition of a living body of 150 mmol/L, and the injection time of the aforementioned His-tag-added HMGB1 was 45 sec.
# [2] = biological target: His-tagged MIF (UniProt P14174 P14174:2-115); experiment: SPR; 300 nM His-MIF specificity control
# His-tagged MIF, sequence (P14174 2-115, one chain of several): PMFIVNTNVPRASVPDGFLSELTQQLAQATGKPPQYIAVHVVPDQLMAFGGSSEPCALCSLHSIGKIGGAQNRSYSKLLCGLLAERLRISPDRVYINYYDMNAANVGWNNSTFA
# Experimental: as §1
# The ability of each of the aforementioned RNA aptamers to bind to His-tag was examined. An analysis of the aforementioned binding ability was carried out in the same manner as in (2) above except that 300 nmol/L of the aforementioned His-tag-added MIF protein was used in place of the aforementioned His-tag-added HMGB1.
# [3] = biological target: HMGB1 (no His-tag) (UniProt P09429 P09429:1-215); experiment: SPR; 1 uM untagged HMGB1, 500 mM NaCl; conditions: tags: none
# HMGB1 (no His-tag), sequence (P09429 whole entry, one chain of several): as the sequence (P09429 whole entry, one chain of several) above
# Experimental: as §1
# The ability of each of the aforementioned RNA aptamers to bind to HMGB1 in which no His-tag was added to the N-terminus was examined. An analysis of the aforementioned binding ability was carried out in the same manner as in (2) above except that 1 μmol/L of the aforementioned HMGB1 was used in place of the aforementioned His-tag-added HGB1 and the injection time of the aforementioned HMGB1 was 60 sec.
# [4] = biological target: T1, His-tagged HMGB1; experiment: SPR; 200 nM protein, 150 mM NaCl; above unmodified 40N; conditions: tags: N-terminal His-tag
# Experimental: as §1
# An analysis of ability to bind to the aforementioned His-tag-added HMGB1 (manufactured by Sigma) was carried out in the same manner as in (2) above of the aforementioned Example 1 except that the aforementioned fluorinated RNA aptamers were used, the concentration of the aforementioned His-tag-added HMGB1 was 200 nmol/L, the concentration of NaCl in the aforementioned running buffer was 150 mmol/L, and the injection time of the aforementioned His-tag-added HMGB1 was 60 seconds. Also, an analysis was carried out in the same manner on unmodified R8c6_{—}1 that was not fluorinated.
# [5] = biological target: T1, His-tagged HMGB1; experiment: SPR; superior to R8c6_1; 635 nM protein; conditions: tags: N-terminal His-tag
# Experimental: as §1
# An analysis of ability to bind to His-tag-added HMGB1 was carried out in the same manner as in (2) above of the aforementioned Example 1 except that the aforementioned RNA aptamers were used, the concentration of the aforementioned His-tag-added HMGB1 was 635 nmol/L, and the injection time of the aforementioned His-tag-added HMGB1 was 60 seconds. Also, an analysis was carried on the aforementioned 40N as a comparative example in the same manner.
binder,measurement,setting,value
B1,binding result,[1],binds
same,binding result,[2],no binding
same,binding result,[3],binds
B2,binding result,[4],binds
B3,binding result,[4],binds
B4,binding result,[4],binds
B5,binding result,[1],binds
same,binding result,[2],no binding
same,binding result,[3],binds
B6,binding result,[1],binds
same,binding result,[2],no binding
same,binding result,[3],binds
B7,binding result,[5],binds
B8,binding result,[1],binds
same,binding result,[2],no binding
same,binding result,[3],binds
B9,binding result,[5],binds
B10,binding result,[5],binds
B11,binding result,[5],binds
B12,binding result,[1],binds
same,binding result,[2],no binding
same,binding result,[3],binds
B13,binding result,[1],binds
same,binding result,[2],no binding
same,binding result,[3],binds
B14,binding result,[1],binds
same,binding result,[2],no binding
same,binding result,[3],binds

# Reference: patent US20120208867, “HMGB1 BINDING NUCLEIC ACID MOLECULE AND APPLICATIONS THEREOF” (published 2012)
